What was measured:
[1] = target: Avaren‐Fc expressed in wild‐type N. benthamiana (AvFc^WT) ( | human); experiment: SPR
[2] = target: Avaren‐Fc expressed in glycoengineered ΔXylT/ΔFucT N. benthamiana (AvFc^ΔXF) ( | human); experiment: SPR

Row | Binder | Kd [1] [nM] | Kd [2] [nM]
1 | mouse FcγRIV (receptor) GLQKAVVNLDPKWVRVLEEDSVTLRCQGTFSPEDNSIKWFHNESLIPHQDANYVIQSARVKDSGMYRCQTALSTISDPVQLEVHMGWLLLQTTKWLFQEGDPIHLRCHSWQNRPVRKVTYLQNGKGKKYFHENSELLIPKATHNDSGSYFCRGLIGHNNKSSASFRISLGDPGSPSMFPPWHQ | 2530 | 457
2 | human FcγRI (receptor) QVDTTKAVITLQPPWVSVFQEETVTLHCEVLHLPGSSSTQWFLNGTATQTSTPSYRITSASVNDSGEYRCQRGLSGRSDPIQLEIHRGWLLLQVSSRVFTEGEPLALRCHAWKDKLVYNVLYYRNGKAFKFFHWNSNLTILKTNISHNGTYHCSGMGKHRYTSAGISVTVKELFPAPVLNASVTSPLLEGNLVTLSCETKLLLQRPGLQLYFSFYMGSKTLRGRNTSSEYQILTARREDSGLYWCEAATEDGNVLKRSPELELQVLGLQLPTPVWFH | 7.78 | 4.04

Reference: article PMC9616523 (2022)
